US7049395 (YALE UNIVERSITY, dated 2006)

B4: NEMO-(197-419) (other, human, UniProt Q9Y6K9 197-419, looked up)
chain: VQVDQLRMQGQSVEAALRMERQAASEEKRKLAQLQVAYHQLFQEYDNHIKSSVVGSERKRGMQLEDLKQQLQQAEEALVAKQEVIDKLKEEAEQHKIVMETVPVLKAQADIYKADFQAERQAREKLAEKKELLQEQLEQLQREYSKLKASCQESARIEDMRKRHVEVSQAPLPPAPAYLSSPLALPSQRRSPPEEPPDFCCPKCQYQAPDMDTLQIHVMECIE
notes: range 197-419; [35S]-labelled in vitro translated; also transfected in COS or HEK293 cells

Assays:
GST alone [1] = target: T1, GST alone (UniProt P08515 1-218 = GST); test: GST pull-down of in vitro translated protein
T1 construct: control bait in the GST pull-downs

GST alone [2] = target: T1, GST alone; test: GST pull-down of [35S]-labelled NEMO truncations
Description: (§1) Equal amounts of each protein were used for subsequent GST pull-down analyses.

NEMO-(197-419) = target: B4; test: GST pull-down with GST-IKKβ-(644-756)
Description: as §1

NEMO-(86-419) = target: T2, NEMO-(86-419) (human, UniProt Q9Y6K9 86-419); test: GST pull-down with GST-IKKβ-(644-756)
T2 construct: range 86-419; [35S]-labelled in vitro translated; also transfected in COS or HEK293 cells
Description: as §1

FLAG-tagged IKKβ = target: T3, FLAG-tagged IKKβ (human, UniProt O14920 1-756); test: co-immunoprecipitation from transfected COS or HEK293 cells
T3 construct: expressed in transfected COS, HEK293 or HeLa cells; also called IKKβ-FLAG; FLAG-IKKβ
T3 sequence (looked up): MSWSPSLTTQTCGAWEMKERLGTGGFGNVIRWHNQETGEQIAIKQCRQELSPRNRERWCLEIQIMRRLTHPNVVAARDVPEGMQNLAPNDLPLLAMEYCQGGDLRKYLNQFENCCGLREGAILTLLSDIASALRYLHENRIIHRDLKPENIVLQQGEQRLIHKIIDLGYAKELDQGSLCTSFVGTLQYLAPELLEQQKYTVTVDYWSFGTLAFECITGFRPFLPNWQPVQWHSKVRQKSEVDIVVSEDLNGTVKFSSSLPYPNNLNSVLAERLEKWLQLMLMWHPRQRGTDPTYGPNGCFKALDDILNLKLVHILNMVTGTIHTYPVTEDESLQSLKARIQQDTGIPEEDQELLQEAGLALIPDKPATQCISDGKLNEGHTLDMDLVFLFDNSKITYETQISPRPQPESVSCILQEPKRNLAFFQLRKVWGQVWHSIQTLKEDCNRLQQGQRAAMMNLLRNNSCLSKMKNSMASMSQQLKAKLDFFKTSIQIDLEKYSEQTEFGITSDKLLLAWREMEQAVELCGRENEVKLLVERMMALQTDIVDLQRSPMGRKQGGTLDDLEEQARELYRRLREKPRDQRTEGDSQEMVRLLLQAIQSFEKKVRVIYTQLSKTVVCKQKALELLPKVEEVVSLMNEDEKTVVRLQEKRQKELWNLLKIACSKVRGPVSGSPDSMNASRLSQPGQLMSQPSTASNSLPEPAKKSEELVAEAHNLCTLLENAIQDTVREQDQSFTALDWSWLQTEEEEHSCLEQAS
Description: For all immunoprecipitations HeLa or COS cells grown in six well trays were lysed in 500 µl TNT. FLAG-tagged proteins were precipitated from lysate of transfected cells for two hours at 4° C. using 20 µl of anti-FLAG (M2)-conjugated agarose beads (Sigma). […] For immunoblotting, precipitates were washed three times with TNT, twice with PBS then suspended in SDS-sample buffer. Proteins were separated by SDS-PAGE (10%), transferred to PVDF membranes and visualized by enhanced chemiluminesence (Amersham-Pharmacia).

T1 sequence (P08515 whole entry): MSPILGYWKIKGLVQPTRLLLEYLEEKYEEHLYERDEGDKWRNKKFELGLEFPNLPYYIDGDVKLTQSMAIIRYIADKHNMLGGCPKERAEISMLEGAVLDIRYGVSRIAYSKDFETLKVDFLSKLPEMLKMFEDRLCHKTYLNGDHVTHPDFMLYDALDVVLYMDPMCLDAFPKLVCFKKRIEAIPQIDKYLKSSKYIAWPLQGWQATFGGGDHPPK

B1: IKKβ-(644-756) (enzyme, human, UniProt O14920 644-756, looked up)
chain: VRLQEKRQKELWNLLKIACSKVRGPVSGSPDSMNASRLSQPGQLMSQPSTASNSLPEPAKKSEELVAEAHNLCTLLENAIQDTVREQDQSFTALDWSWLQTEEEEHSCLEQAS
- binding result (GST alone [1]): no binding

B2: NEMO-(1-196) (other, human, UniProt Q9Y6K9 1-196, looked up)
chain: MNRHLWKSQLCEMVQPSGGPAADQDVLGEESPLGKPAMLHLPSEQGAPETLQRCLEENQELRDAIRQSNQILRERCEELLHFQASQREEKEFLMCKFQEARKLVERLGLEKLDLKRQKEQALREVEHLKRCQQQMAEDKASVKAQVTSLLGELQESQSRLEAATKECQALEGRARAASEQARQLESEREALQQQHS
notes: [35S]-labelled in vitro translated; also transfected in COS or HEK293 cells
- binding result (GST alone [2]): no binding

B3: GST-IKKβ-(644-756) (other, human, UniProt O14920 644-756, looked up)
chain: VRLQEKRQKELWNLLKIACSKVRGPVSGSPDSMNASRLSQPGQLMSQPSTASNSLPEPAKKSEELVAEAHNLCTLLENAIQDTVREQDQSFTALDWSWLQTEEEEHSCLEQAS
notes: bacterially expressed; not shown: glutathione S-transferase (GST) as encoded by vector pGEX-4T1 (Pharmacia)
- binding result (NEMO-(197-419)): no binding
- binding result (NEMO-(86-419)): no binding

Binder: B4
- binding result (FLAG-tagged IKKβ): no binding
